# Data from patent US20190135872A1.
# How the values were obtained:
# [1] = target: 16055 NFL-TD+CC2-D4K_I559P w/rEK (HIV-1 16055 (clade C)); assay: ELISA, His-captured trimer
# [2] = target: BG505 NFL (I559P) parental (HIV-1 BG505 (clade A)); assay: ELISA, His-captured trimer
# [3] = target: 16055 NFL-TD+CC2-D4K_I559P (HIV-1 16055 (clade C)); assay: ELISA, His-captured trimer
# [4] = target: 16055 NFL-CC2 (HIV-1 16055 (clade C)); assay: ELISA, His-captured trimer
# [5] = target: BG505 NFL-L555P (HIV-1 BG505 (clade A)); assay: ELISA, His-captured trimer
# [6] = target: BG505 NFL-TD+CC2-D4K_I559P (HIV-1 BG505 (clade A)); assay: ELISA, His-captured trimer
# [7] = target: BG505 NFL-TD+CC2-D4K_L555P (HIV-1 BG505 (clade A)); assay: ELISA, His-captured trimer
# [8] = target: 16055 NFL-L555P (HIV-1 16055 (clade C)); assay: ELISA, His-captured trimer
# [9] = target: 16055 NFL-Q563P (HIV-1 16055 (clade C)); assay: ELISA, His-captured trimer
# [10] = target: BG505 NFL-CC2 (HIV-1 BG505 (clade A)); assay: ELISA, His-captured trimer
# [11] = target: BG505 NFL-TD+CC2-D4K_L555P w/rEK (HIV-1 BG505 (clade A)); assay: ELISA, His-captured trimer
# [12] = target: 16055 NFL-TD+CC2-D4K_L555P w/rEK (HIV-1 16055 (clade C)); assay: ELISA, His-captured trimer
# [13] = target: BG505 NFL-TD+CC2-D4K_I559P w/rEK (HIV-1 BG505 (clade A)); assay: ELISA, His-captured trimer
# [14] = target: 16055 NFL (I559P) parental (HIV-1 16055 (clade C)); assay: ELISA, His-captured trimer
# [15] = target: JRFL NFL-CC2 (HIV-1 JRFL (clade B)); assay: ELISA, His-captured trimer
# [16] = target: 16055 NFL-TD+CC2-D4K_L555P (HIV-1 16055 (clade C)); assay: ELISA, His-captured trimer
# [17] = target: BG505 NFL (I559P) parental (HIV-1 BG505 (clade A)); assay: BLI, IgG captured, trimer as analyte
# [18] = target: BG505 NFL-Q562P (HIV-1 BG505 (clade A)); assay: BLI, IgG captured, trimer as analyte
# [19] = target: 16055 NFL-TD+CC2-D4K_I559P (HIV-1 16055 (clade C)); assay: BLI, IgG captured, trimer as analyte
# [20] = target: 16055 NFL-CC2 (HIV-1 16055 (clade C)); assay: BLI, IgG captured, trimer as analyte
# [21] = target: BG505 NFL-L555P (HIV-1 BG505 (clade A)); assay: BLI, IgG captured, trimer as analyte
# [22] = target: BG505 NFL-TD+CC2-D4K_I559P (HIV-1 BG505 (clade A)); assay: BLI, IgG captured, trimer as analyte
# [23] = target: BG505 NFL-TD+CC2-D4K_L555P (HIV-1 BG505 (clade A)); assay: BLI, IgG captured, trimer as analyte
# [24] = target: 16055 NFL-L555P (HIV-1 16055 (clade C)); assay: BLI, IgG captured, trimer as analyte
# [25] = target: 16055 NFL-Q563P (HIV-1 16055 (clade C)); assay: BLI, IgG captured, trimer as analyte
# [26] = target: BG505 NFL-CC2 (HIV-1 BG505 (clade A)); assay: BLI, IgG captured, trimer as analyte
# [27] = target: BG505 NFL-Q563P (HIV-1 BG505 (clade A)); assay: BLI, IgG captured, trimer as analyte
# [28] = target: 16055 NFL-Q562P (HIV-1 16055 (clade C)); assay: BLI, IgG captured, trimer as analyte
# [29] = target: BG505 NFL-N554P (HIV-1 BG505 (clade A)); assay: BLI, IgG captured, trimer as analyte
# [30] = target: 16055 NFL-TD+CC2-D4K_L555P (HIV-1 16055 (clade C)); assay: BLI, IgG captured, trimer as analyte
# [31] = target: BG505 NFL-S553P (HIV-1 BG505 (clade A)); assay: BLI, IgG captured, trimer as analyte
substance,measurement,setting,value
2G12 (antibody),EC50,[1],0.105 µg/mL
same,EC50,[2],0.029 µg/mL
same,EC50,[3],0.043 µg/mL
same,EC50,[4],0.056 µg/mL
same,EC50,[5],0.022 µg/mL
same,EC50,[6],0.024 µg/mL
same,EC50,[7],0.027 µg/mL
same,EC50,[8],0.051 µg/mL
same,EC50,[9],0.066 µg/mL
same,EC50,[10],0.025 µg/mL
same,EC50,[11],0.021 µg/mL
same,EC50,[12],0.11 µg/mL
same,EC50,[13],0.031 µg/mL
same,EC50,[14],2.34 µg/mL
same,EC50,[15],0.022 µg/mL
same,EC50,[16],0.038 µg/mL
PG16 (antibody),EC50,[1],0.19 µg/mL
same,EC50,[2],0.144 µg/mL
same,EC50,[3],0.123 µg/mL
same,EC50,[4],0.089 µg/mL
same,EC50,[5],0.101 µg/mL
same,EC50,[6],0.206 µg/mL
same,EC50,[7],0.215 µg/mL
same,EC50,[8],0.121 µg/mL
same,EC50,[9],0.102 µg/mL
same,EC50,[10],0.143 µg/mL
same,EC50,[11],0.307 µg/mL
same,EC50,[12],0.122 µg/mL
same,EC50,[13],0.336 µg/mL
same,EC50,[15],0.216 µg/mL
same,EC50,[16],0.115 µg/mL
same,Kd,[17],15 nM
same,Kd,[18],15 nM
same,Kd,[19],23 nM
same,koff,[19],0.001 s⁻¹
same,kon,[19],43000 M⁻¹ s⁻¹
same,Kd,[20],15 nM
same,koff,[20],0.0009 s⁻¹
same,kon,[20],61000 M⁻¹ s⁻¹
same,Kd,[21],7.8 nM
same,Kd,[22],59 nM
same,koff,[22],0.0048 s⁻¹
same,kon,[22],81000 M⁻¹ s⁻¹
same,Kd,[23],70 nM
same,koff,[23],0.0057 s⁻¹
same,kon,[23],81000 M⁻¹ s⁻¹
same,Kd,[24],6.9 nM
same,koff,[24],0.0009 s⁻¹
same,kon,[24],130000 M⁻¹ s⁻¹
same,Kd,[25],1.7 nM
same,koff,[25],0.0003 s⁻¹
same,kon,[25],190000 M⁻¹ s⁻¹
same,Kd,[26],43 nM
same,koff,[26],0.0033 s⁻¹
same,kon,[26],78000 M⁻¹ s⁻¹
same,Kd,[27],12 nM
same,Kd,[28],2.8 nM
same,koff,[28],0.0005 s⁻¹
same,kon,[28],170000 M⁻¹ s⁻¹
same,Kd,[29],14 nM
same,Kd,[30],16 nM
same,koff,[30],0.0007 s⁻¹
same,kon,[30],43000 M⁻¹ s⁻¹
same,Kd,[31],7.2 nM
PGDM1400 (antibody),EC50,[1],0.03 µg/mL
same,EC50,[2],0.039 µg/mL
same,EC50,[3],0.025 µg/mL
same,EC50,[4],0.018 µg/mL
same,EC50,[5],0.02 µg/mL
same,EC50,[6],0.038 µg/mL
same,EC50,[7],0.042 µg/mL
same,EC50,[8],0.019 µg/mL
same,EC50,[9],0.016 µg/mL
same,EC50,[10],0.018 µg/mL
same,EC50,[11],0.04 µg/mL
same,EC50,[12],0.025 µg/mL
same,EC50,[13],0.038 µg/mL
same,EC50,[15],0.2 µg/mL
same,EC50,[16],0.021 µg/mL
same,Kd,[17],11 nM
same,Kd,[18],13 nM
same,Kd,[19],21 nM
same,koff,[19],0.0021 s⁻¹
same,kon,[19],98000 M⁻¹ s⁻¹
same,Kd,[20],14 nM
same,koff,[20],0.0016 s⁻¹
same,kon,[20],110000 M⁻¹ s⁻¹
same,Kd,[21],5.1 nM
same,Kd,[22],18 nM
same,koff,[22],0.0016 s⁻¹
same,kon,[22],88000 M⁻¹ s⁻¹
same,Kd,[23],23 nM
same,koff,[23],0.002 s⁻¹
same,kon,[23],88000 M⁻¹ s⁻¹
same,Kd,[24],2.3 nM
same,koff,[24],0.0004 s⁻¹
same,kon,[24],200000 M⁻¹ s⁻¹
same,Kd,[25],1.3 nM
same,koff,[25],0.0004 s⁻¹
same,kon,[25],300000 M⁻¹ s⁻¹
same,Kd,[26],24 nM
same,koff,[26],0.0018 s⁻¹
same,kon,[26],76000 M⁻¹ s⁻¹
same,Kd,[27],5 nM
same,Kd,[28],1.4 nM
same,koff,[28],0.0003 s⁻¹
same,kon,[28],230000 M⁻¹ s⁻¹
same,Kd,[29],2.5 nM
same,Kd,[30],13 nM
same,koff,[30],0.0016 s⁻¹
same,kon,[30],120000 M⁻¹ s⁻¹
same,Kd,[31],11 nM
PGT128 (antibody),EC50,[1],0.08 µg/mL
same,EC50,[2],0.039 µg/mL
same,EC50,[3],0.055 µg/mL
same,EC50,[4],0.135 µg/mL
same,EC50,[5],0.021 µg/mL
same,EC50,[6],0.036 µg/mL
same,EC50,[7],0.041 µg/mL
same,EC50,[8],0.056 µg/mL
same,EC50,[9],0.068 µg/mL
same,EC50,[10],0.035 µg/mL
same,EC50,[11],0.037 µg/mL
same,EC50,[12],0.071 µg/mL
same,EC50,[13],0.036 µg/mL
same,EC50,[15],0.04 µg/mL
same,EC50,[16],0.05 µg/mL
